In patent US10513545B2, “Fusion polypeptide in which anti-inflammatory polypeptide and ferritin monomer fragment are bound and pharmaceutical composition for preventing and treating inflammatory diseases, containing same as active ingredient” (KYUNGPOOK NATIONAL UNIVERSITY INDUSTRY-ACADEMIC COOPERATION …, priority 2015, dated 2019):

Columns and labels:
HUVECs = test: HUVEC cell-binding assay with fluorescence-labeled molecules (in vitro); type: cell-based, human; conditions: for degree of binding to HUVECs: FIG. 10, compared with PC-Gla; for in vitro binding to endothelial cells compared with PC-Gla: HUVEC, FIG. 12A
Description: PC-Gla, TFG, and TFMG were labeled with FNG-456 NHS ester for in vitro assays or FNI-675 NHS ester for in vivo assays at a molar ratio of 1:3. Briefly, each molecule (10 μM) was dissolved in PBS (1.5 mL), and FNG-456 NHS ester (30 μM) or FNI-675 NHS ester (30 μM) was dissolved in DMSO (0.2 mL). Each molecule and fluorescent dye was reacted at room temperature for 3 h. The reaction product was passed through a 0.2-μm filtering unit, and the unreacted dye was separated on a PD midiTrap™ G-25 (GE Healthcare, UK) that had been pre-equilibrated in PBS with 2 mM sodium azide. This process yielded more than 2.17 μM of each nanoparticle with more than 1.5 ratio of dye per protein.
(§1) A direct cell-binding assay was performed on HUVECs and in vivo using fluorescence labeled-PC-Gla, TFG, and TFMG. The assay was performed with PC-Gla, TFG, or TFMG treated on HUVECs, intravenously injected mice, and isolated mouse endothelial cells. The fluorescence value of the HUVECs or endothelial cells were measured with tightly bound PC-Gla, TFG, and TFMG, respectively. The concentrations of PC-Gla, TFG, and TFMG were measured by using the nanoparticle ratio of fluorescent dye per protein.

endothelial cells = test: in vivo binding to endothelial cells (intravenously injected mice, isolated mouse endothelial cells); conditions: mouse animal model, FIG. 12B
Source text: The endothelial cells were isolated according to the manufacturer's (Dynal Biotec, Lake Success, N.Y.) instructions, using Dynabeads coupled to anti-CD31 antibody and the Dynal Magnetic holder. Briefly, for endothelial cell isolation, four to six mice (6-10 weeks old) were anesthetized, followed by exposure of the peritoneal cavity. Excised lungs and hearts were put into RPMI media, followed by removing other tissues from the heart and lungs, and then rinsing once in PBS. The lungs and heart were incubated with 1.0 mg/mL of collagenase A in a 50 mL tube for 1 h at around 37° C. Every 5 min during this incubation, the tube was gently agitated for a few seconds, and then the suspension was transferred into a new 50 mL tube by passing it through the 70 um tissue sieve (BD Falcon). The filtered cell suspension was centrifuged for 10 min at 1000 rpm. After removal of the supernatant, the cell pellet was washed once with cold PBS in a new 15-mL tube. […]
as §1, with “The assay was performed with PC-Gla, TFG, or TFMG treated on HUVECs, intravenously injected mice, and isolated mouse endothelial cells.” left out

CLP-induced sepsis [1] = test: serum organ injury markers (ALT, AST, creatinine, BUN, LDH) in CLP-induced sepsis; type: in vivo, mouse; conditions: FIG. 17
Description: To induce inflammation, male mice were anesthetized with 2% isoflurane (JW Pharmaceutical, Republic of Korea) in oxygen delivered via a small rodent gas anesthesia machine (RC2, Vetequip, Pleasanton, Calif.), first in a breathing chamber and then via a facemask. They were allowed to breathe spontaneously during this procedure. The CLP-induced inflammation model was prepared as previously described. In brief, a 2-cm midline incision was made to expose the cecum and adjoining intestine. The cecum was then tightly ligated with a 3.0-silk suture at 5.0 mm from the cecal tip and punctured once using a 22-gauge needle for the induction of high grade inflammation. It was then squeezed gently to extrude a small amount of feces from the perforation site and returned to the peritoneal cavity. The laparotomy site was then sutured with 4.0-silk. In sham control animals, the cecum was exposed but not ligated or punctured and then returned to the abdominal cavity. This protocol was approved by the Animal Care Committee at Kyungpook National University prior to the conduct of the study (IRP No, KNU 2012-13).
Fresh serum was used for assaying aspartate transaminase (AST), alanine transaminase (ALT), blood urea nitrogen (BUN), creatinine, and LDH using biochemical kits (Mybiosource). To determine the concentrations of IL-6, IL-10, and TNF-α, commercially available ELISA kits were used according to the manufacturer's protocol (R&D Systems). Values were measured using an ELISA plate reader (Tecan, Austria GmbH, Austria).

CLP-induced sepsis [2] = test: in vivo vascular permeability assay (Evans blue leakage); parameters: species or system mouse; conditions: CLP-operated mice, intravenous, FIG. 20
Description: CLP-operated mice were injected with PC-Gla with TRAP, TFG, or TFMG intravenously. After 6 h, 1% Evans blue dye solution in normal saline was injected intravenously into each mouse. Thirty minutes later, the mice were sacrificed, and the peritoneal exudates were collected after being washed with normal saline (5 mL) and centrifuged at 200×g for 10 min. The absorbance of the supernatant was read at 650 nm. The vascular permeability was expressed in terms of dye (mg/mouse), which leaked into the peritoneal cavity according to a standard curve of Evans blue dye, as previously described.

[3] = test system: VCAM-1, ICAM-1 and E-selectin on HUVECs; test: expression of cell adhesion molecules (CAMs), whole-cell ELISA; type: cell-based, human; conditions: LPS 100 ng/mL, FIG. 21A
Description: The expression of vascular cell adhesion molecule-1 (VCAM-1), intercellular adhesion molecule-1 (ICAM-1), and E-selectin on HUVECs were determined by a whole-cell ELISA as described. Briefly, confluent monolayers of HUVECs were treated with PC-Gla with TRAP, TFG, or TFMG for 6 h followed by LPS (100 ng/mL) for 16 h (VCAM-1 and ICAM-1) or 24 h (E-Selectin). After washing, mouse anti-human monoclonal VCAM-1 (100 μM; clone; 6C7.1), ICAM-1 (clone; P2A4) and E-selectin (clone; P3H3) antibodies (Millipore Corporation, 1:50 each) were added. After 1 h (37° C., 5% CO2), the cells were washed three times and then 1:2000 peroxidase-conjugated anti-mouse IgG antibody (100 μl; Sigma) was added for 1 h. The cells were washed again three times and developed using the o-phenylenediamine substrate (Sigma). Colorimetric analysis was performed by measuring absorbance at 490 nm. All measurements were performed in triplicate wells.

Molecule	degree of binding to HUVECs (HUVECs)	in vitro binding to endothelial cells compared with PC-Gla (HUVECs)	in vivo binding to endothelial cells compared with PC-Gla (endothelial cells)	toxicity indicator for general organs (LDH) (CLP-induced sepsis [1])	toxicity indicators for kidneys (creatinine and BUN) (CLP-induced sepsis [1])	toxicity indicators for liver (ALT and AST) (CLP-induced sepsis [1])	in vivo vascular permeability (CLP-induced sepsis [2])	LPS-mediated upregulation of CAMs [3]
TFG: fusion polypeptide: TRAP at N-terminus and PC-Gla at C-terminus of short ferritin monomer fragment, forms nanocage (apparently SEQ ID NO: 14) (protein, Fusion polypeptide (1)) MGGTTFLLRNASGHMSSQIRQNYSTDVEAAVNSLVNLYLQASYTYLSLGFYFDRDDVALEGVSHFFRELAEEKREGYERLLKMQNQRGGRIFLQDIKKPAEDEWGKTPDAMKAAMALEKKLNQALLDLHALGSARTDPHLCDFLETHFLDEEVKLIKKMGDHLTNLHRLGGGSEFVDGGGSGTSANSFLEELRHSSLERECIEEICDFEEAKEIFQNVDDTLAFWSKHVLEHHHHHH	strong binding affinities which are equivalent to that of PC-Gla	bound more strongly to, and stayed longer on, endothelial cells than PC-Gla did	bound more strongly to, and stayed longer on, endothelial cells than PC-Gla did	considerably improved	considerably improved	considerably improved	alleviated	inhibited
TFMG: as TFG with an MMP-2 cleavable linker (GPLGLAG) between ferritin fragment C-terminus and PC-Gla (apparently SEQ ID NO: 15) (protein, Fusion polypeptide (2)) MGGTTFLLRNASGHMSSQIRQNYSTDVEAAVNSLVNLYLQASYTYLSLGFYFDRDDVALEGVSHFFRELAEEKREGYERLLKMQNQRGGRIFLQDIKKPAEDEWGKTPDAMKAAMALEKKLNQALLDLHALGSARTDPHLCDFLETHFLDEEVKLIKKMGDHLTNLHRLGGGSEFVDGGGSGTSGPLGLAGANSFLEELRHSSLERECIEEICDFEEAKEIFQNVDDTLAFWSKHVLEHHHHHH	strong binding affinities which are equivalent to that of PC-Gla	bound more strongly to, and stayed longer on, endothelial cells than PC-Gla did	bound more strongly to, and stayed longer on, endothelial cells than PC-Gla did	considerably improved	considerably improved	considerably improved	alleviated	inhibited
